For the assay, the target named is T1, SARS-CoV-2 Spike receptor binding domain, Wuhan (ancestral) variant (SARS-CoV-2, UniProt P0DTC2, biotinylated in vitro when needed).
T1 construct: also called Wuhan RBD; soluble (monomeric) RBD
In words: flow cytometry on cells; cell-surface binding inhibition: 36 nM RBD preincubated with 1 to 1088 nM of the molecule for 1 h at 37°C in PBS, 1% BSA, 2 mM EDTA, then 1x10^5 HEK-293T-hACE2 cells for 1 h on ice; RBD on cells revealed with Strep-Tactin-Dye649; blocker and RBD meet in solution. The conditions noted are these: both partners purified. (In general: Flow cytometry measures light scatter and fluorescence of single cells or particles in a stream.)

B1: Binder C (VHH)
VHH: QVQLVESGGGLVQPGGSLRLSCAASGITLDYYAIGWFRQAPGKEREGVSRIRSSDGSTNYADSVKGRFTMSRDNAKNTVYLQMNSLKPEDTAVYYCAYGPLTKYGSSWYWPYEYDYWGQGTQVTVSS
notes: not shown: His6, N-terminal, cleaved; SUMO, N-terminal, cleaved
Take B1: the binding result is given as “binds”.

The record behind these values is article PMC10447908, “Customizably designed multibodies neutralize SARS-CoV-2 in a variant-insensitive manner” (Frontiers in Immunology, 2023).
